Series [1] addresses T1, AtNF-YA6;AtNF-YB2;AtNF-YC3 (Arabidopsis thaliana;Arabidopsis …, UniProt Q9LVJ7;Q9FGJ3;Q9ZVL3 170-237;24-116;55-148, ||). As to the kind of experiment: EMSA; 12 mM Tris-HCl pH 8.0, 50 mM NaCl, 50 mM KCl, 5 mM MgCl2, 0.5 mM EDTA, 12% glycerol, 0.2 mg/mL BSA, 2.5 mM DTT, 100 ng poly(dA:dT), 20 nM Cy5 probe, 30 C 30 min; 6% PAGE in 0.25X TBE. The following applies: protein: recombinant;recombinant;recombinant; tags: 6His;6His removed by thrombin;; copies: 1;1;1; label: Cy5 5'. On the technique in general: A gel shift assay detects complexes by their altered migration in electrophoresis.

For series [2], the target named is AtNF-YA2;AtNF-YB2;AtNF-YC3 (Arabidopsis thaliana;Arabidopsis …, UniProt Q9M9X4;Q9FGJ3;Q9ZVL3 134-207;24-116;55-148, ||). As to the kind of experiment: EMSA; efficiency similar to NF-YA6 trimer; 12 mM Tris-HCl pH 8.0, 50 mM NaCl, 50 mM KCl, 5 mM MgCl2, 0.5 mM EDTA, 12% glycerol, 0.2 mg/mL BSA, 2.5 mM DTT, 100 ng poly(dA:dT), 20 nM Cy5 probe, 30 C 30 min; 6% PAGE in 0.25X TBE. Particulars: protein: recombinant;recombinant;recombinant; tags: 6His;6His removed by thrombin;; copies: 1;1;1; label: Cy5 5'.
Sequence of AtNF-YA2;AtNF-YB2;AtNF-YC3 (Q9M9X4 134-207, chain 1 of 3): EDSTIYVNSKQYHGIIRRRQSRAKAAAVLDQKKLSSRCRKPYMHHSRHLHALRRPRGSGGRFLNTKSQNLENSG
Sequence of AtNF-YA2;AtNF-YB2;AtNF-YC3 (Q9FGJ3 24-116, chain 2 of 3): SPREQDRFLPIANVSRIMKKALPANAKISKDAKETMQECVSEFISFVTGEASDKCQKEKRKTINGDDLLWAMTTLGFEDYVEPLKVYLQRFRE
Sequence of AtNF-YA2;AtNF-YB2;AtNF-YC3 (Q9ZVL3 55-148, chain 3 of 3): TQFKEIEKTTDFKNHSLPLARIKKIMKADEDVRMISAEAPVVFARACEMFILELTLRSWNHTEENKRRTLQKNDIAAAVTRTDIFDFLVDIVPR

Series [3] has as its target T1, AtNF-YA6;AtNF-YB2;AtNF-YC3. As to the kind of experiment: competition EMSA; preferred over WT; 12 mM Tris-HCl pH 8.0, 50 mM NaCl, 50 mM KCl, 5 mM MgCl2, 0.5 mM EDTA, 12% glycerol, 0.2 mg/mL BSA, 2.5 mM DTT, 100 ng poly(dA:dT), 20 nM Cy5 probe, 30 C 30 min; 6% PAGE in 0.25X TBE. The following applies: protein: recombinant;recombinant;recombinant; tags: 6His;6His removed by thrombin;; copies: 1;1;1.

The target of series [4] is T1, AtNF-YA6;AtNF-YB2;AtNF-YC3. As to the kind of experiment: competition EMSA; equal to WT; 12 mM Tris-HCl pH 8.0, 50 mM NaCl, 50 mM KCl, 5 mM MgCl2, 0.5 mM EDTA, 12% glycerol, 0.2 mg/mL BSA, 2.5 mM DTT, 100 ng poly(dA:dT), 20 nM Cy5 probe, 30 C 30 min; 6% PAGE in 0.25X TBE. The following applies: protein: recombinant;recombinant;recombinant; tags: 6His;6His removed by thrombin;; copies: 1;1;1.

Series [5] addresses T1, AtNF-YA6;AtNF-YB2;AtNF-YC3. In words: competition EMSA; purines preferred at +2; 12 mM Tris-HCl pH 8.0, 50 mM NaCl, 50 mM KCl, 5 mM MgCl2, 0.5 mM EDTA, 12% glycerol, 0.2 mg/mL BSA, 2.5 mM DTT, 100 ng poly(dA:dT), 20 nM Cy5 probe, 30 C 30 min; 6% PAGE in 0.25X TBE. Particulars: protein: recombinant;recombinant;recombinant; tags: 6His;6His removed by thrombin;; copies: 1;1;1.

For series [6], the target named is T1, AtNF-YA6;AtNF-YB2;AtNF-YC3. As to the kind of experiment: competition EMSA; 12 mM Tris-HCl pH 8.0, 50 mM NaCl, 50 mM KCl, 5 mM MgCl2, 0.5 mM EDTA, 12% glycerol, 0.2 mg/mL BSA, 2.5 mM DTT, 100 ng poly(dA:dT), 20 nM Cy5 probe, 30 C 30 min; 6% PAGE in 0.25X TBE. The following applies: protein: recombinant;recombinant;recombinant; tags: 6His;6His removed by thrombin;; copies: 1;1;1.

Series [7] concerns the target T1, AtNF-YA6;AtNF-YB2;AtNF-YC3. As to the kind of experiment: competition EMSA; highest affinity at -3; 12 mM Tris-HCl pH 8.0, 50 mM NaCl, 50 mM KCl, 5 mM MgCl2, 0.5 mM EDTA, 12% glycerol, 0.2 mg/mL BSA, 2.5 mM DTT, 100 ng poly(dA:dT), 20 nM Cy5 probe, 30 C 30 min; 6% PAGE in 0.25X TBE. The following applies: protein: recombinant;recombinant;recombinant; tags: 6His;6His removed by thrombin;; copies: 1;1;1.

In series [8] the target is T1, AtNF-YA6;AtNF-YB2;AtNF-YC3. In words: competition EMSA; similar rates, WT A least preferred; 12 mM Tris-HCl pH 8.0, 50 mM NaCl, 50 mM KCl, 5 mM MgCl2, 0.5 mM EDTA, 12% glycerol, 0.2 mg/mL BSA, 2.5 mM DTT, 100 ng poly(dA:dT), 20 nM Cy5 probe, 30 C 30 min; 6% PAGE in 0.25X TBE. Particulars: protein: recombinant;recombinant;recombinant; tags: 6His;6His removed by thrombin;; copies: 1;1;1.

Series [9] addresses T1, AtNF-YA6;AtNF-YB2;AtNF-YC3. As to the kind of experiment: competition EMSA; better than WT; 12 mM Tris-HCl pH 8.0, 50 mM NaCl, 50 mM KCl, 5 mM MgCl2, 0.5 mM EDTA, 12% glycerol, 0.2 mg/mL BSA, 2.5 mM DTT, 100 ng poly(dA:dT), 20 nM Cy5 probe, 30 C 30 min; 6% PAGE in 0.25X TBE. The following applies: protein: recombinant;recombinant;recombinant; tags: 6His;6His removed by thrombin;; copies: 1;1;1.

Series [10] deals with T1, AtNF-YA6;AtNF-YB2;AtNF-YC3. In words: competition EMSA; higher affinity; 12 mM Tris-HCl pH 8.0, 50 mM NaCl, 50 mM KCl, 5 mM MgCl2, 0.5 mM EDTA, 12% glycerol, 0.2 mg/mL BSA, 2.5 mM DTT, 100 ng poly(dA:dT), 20 nM Cy5 probe, 30 C 30 min; 6% PAGE in 0.25X TBE. Particulars: protein: recombinant;recombinant;recombinant; tags: 6His;6His removed by thrombin;; copies: 1;1;1.

Consider 14 molecules from PMC6843132, “The Plant NF-Y DNA Matrix In Vitro and In Vivo”.

T1 sequence (Q9LVJ7 170-237, chain 1 of 3): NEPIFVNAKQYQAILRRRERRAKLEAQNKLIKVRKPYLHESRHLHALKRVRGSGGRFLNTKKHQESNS
T1 sequence (Q9FGJ3 24-116, chain 2 of 3): as the sequence (Q9FGJ3 24-116, chain 2 of 3) above
T1 sequence (Q9ZVL3 55-148, chain 3 of 3): as the sequence (Q9ZVL3 55-148, chain 3 of 3) above

B1: CAB2 (-65) CCAAT 31 bp probe (dsDNA)
DNA 1: CTTAAAATCCAATGAATGAACAGATAAAGAT
DNA 2: ATCTTTATCTGTTCATTCATTGGATTTTAAG
Consider B1, for which the binding result in series [1] and in series [2] was “binds” throughout.

B2: CAB2 T7G (dsDNA)
DNA 1: CTTAAAAGCCAATGAATGAACAGATAAAGAT
DNA 2: ATCTTTATCTGTTCATTCATTGGCTTTTAAG
On to B2, for which the binding result in [3] is “binds”.

B3: CAB2 G13C (dsDNA)
DNA 1: CTTAAAATCCAATCAATGAACAGATAAAGAT
DNA 2: ATCTTTATCTGTTCATTGATTGGATTTTAAG
Take B3: in [3], the binding result was “binds”.

B4: CAB2 A6T (dsDNA)
DNA 1: CTTAAATTCCAATGAATGAACAGATAAAGAT
DNA 2: ATCTTTATCTGTTCATTCATTGGAATTTAAG
Consider B4, for which, in [4], the binding result was “binds”.

B5: CAB2 A14G (dsDNA)
DNA 1: CTTAAAATCCAATGGATGAACAGATAAAGAT
DNA 2: ATCTTTATCTGTTCATCCATTGGATTTTAAG
For the molecule B5, the binding result in [5] is given as “binds”.

B6: CAB2 WT competitor 31 bp (dsDNA)
DNA 1: CTTAAAATCCAATGAATGAACAGATAAAGAT
DNA 2: ATCTTTATCTGTTCATTCATTGGATTTTAAG
Regarding B6, the binding result in series [6] is listed as “binds”.

B7: CAB2 A5T (dsDNA)
DNA 1: CTTAATATCCAATGAATGAACAGATAAAGAT
DNA 2: ATCTTTATCTGTTCATTCATTGGATATTAAG
B7: the binding result in series [7] is listed as “binds”.

B8: CAB2 A15T (dsDNA)
DNA 1: CTTAAAATCCAATGATTGAACAGATAAAGAT
DNA 2: ATCTTTATCTGTTCAATCATTGGATTTTAAG
Take B8: the binding result in series [8] is given as “binds”.

B9: CAB2 T7A (dsDNA)
DNA 1: CTTAAAAACCAATGAATGAACAGATAAAGAT
DNA 2: ATCTTTATCTGTTCATTCATTGGTTTTTAAG
With B9, in [3], the binding result is on record as “binds”.

B10: CAB2 A6G (dsDNA)
DNA 1: CTTAAAGTCCAATGAATGAACAGATAAAGAT
DNA 2: ATCTTTATCTGTTCATTCATTGGACTTTAAG
Turning to B10, in series [9], the binding result is “binds”.

B11: CAB2 A15C (dsDNA)
DNA 1: CTTAAAATCCAATGACTGAACAGATAAAGAT
DNA 2: ATCTTTATCTGTTCAGTCATTGGATTTTAAG
For B11, in [8], the binding result is “binds”.

B12: CAB2 A15G (dsDNA)
DNA 1: CTTAAAATCCAATGAGTGAACAGATAAAGAT
DNA 2: ATCTTTATCTGTTCACTCATTGGATTTTAAG
Consider B12, for which, in series [8], the binding result was “binds”.

B13: CAB2 T16A (dsDNA)
DNA 1: CTTAAAATCCAATGAAAGAACAGATAAAGAT
DNA 2: ATCTTTATCTGTTCTTTCATTGGATTTTAAG
For B13, the binding result in series [10] was “binds”.

B14: CAB2 A6C (dsDNA)
DNA 1: CTTAAACTCCAATGAATGAACAGATAAAGAT
DNA 2: ATCTTTATCTGTTCATTCATTGGAGTTTAAG
For the molecule B14, the binding result in series [9] is listed as “binds”.
